Laboratory results from the supplement of paper PMC10598134.
± gives the standard deviation.

Experiment: collision cross section of modified peptide (TIMS, N2, iRT-aligned); higher = larger / more extended gas-phase ion
Method: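 1/K0 was aligned run-wise to spiked iRT peptides and converted to CCS in N2 (Mason-Schamp). Values are the mean of 1-3 technical replicates for the most abundant feature at each charge state.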

[1] = charge state: 2, modification: Glutarylation
[2] = charge state: 3, modification: Glutarylation
[3] = charge state: 3, modification: Methyl (R)
[4] = charge state: 2, modification: Malonyl
[5] = charge state: 2, modification: Methyl (K)
[6] = charge state: 3, modification: Methyl (K)
[7] = charge state: 2, modification: HexNAc (ST)
[8] = charge state: 2, modification: Succinyl
[9] = charge state: 3, modification: Succinyl
[10] = charge state: 2, modification: Butyryl
[11] = charge state: 3, modification: Butyryl
[12] = charge state: 3, modification: hydroxyisobutyryl
[13] = charge state: 2, modification: hydroxyisobutyryl
[14] = charge state: 2, modification: Dimethyl (K)
[15] = charge state: 3, modification: Dimethyl (K)
[16] = charge state: 2, modification: Propionyl
[17] = charge state: 2, modification: GlyGly (K)
[18] = charge state: 3, modification: GlyGly (K)
[19] = charge state: 3, modification: Propionyl
[20] = charge state: 2, modification: Citrullination (R)
[21] = charge state: 2, modification: Phospho (Y)
[22] = charge state: 2, modification: Nitro (Y)
[23] = charge state: 2, modification: Hydroxyproline
[24] = charge state: 2, modification: Acetyl (K)
[25] = charge state: 3, modification: HexNAc (ST)
[26] = charge state: 2, modification: Formyl
[27] = charge state: 2, modification: Crotonyl
[28] = charge state: 3, modification: Crotonyl

Sequence: ANLEKAQAELVGTADEATR [_ANLEK(Gluratylation)AQAELVGTADEATR_]
- collision cross section [1]: 478.84 ± 1.4 Å²
- collision cross section [2]: 584.83 ± 0.77 Å²

Sequence: LGTTPSVYGGAGGRGIR [_LGTTPSVYGGAGGR(Methyl (R))GIR_]
- collision cross section [3]: 525.94 ± 0.78 Å²

Sequence: SLFFGGKGAPLQR [_SLFFGGK(Malonyl)GAPLQR_]
- collision cross section [4]: 399.96 ± 0.61 Å²

Sequence: GTITVSAQELKDNR [_GTITVSAQELK(Methyl (K))DNR_]
- collision cross section [5]: 439.73 ± 1.7 Å²
- collision cross section [6]: 485.75 ± 3.3 Å²

Sequence: MTLSVLSR [_MTLS(HexNAc (ST))VLSR_]
- collision cross section [7]: 352.44 ± 0.8 Å²

Sequence: DLGKFQVATDALK [_DLGK(Succinyl)FQVATDALK_]
- collision cross section [8]: 409.86 ± 0.37 Å²
- collision cross section [9]: 478.58 Å²

Sequence: VPTTEKPTVTVNFR [_VPTTEK(Butyryl)PTVTVNFR_]
- collision cross section [10]: 428.57 ± 0.24 Å²
- collision cross section [11]: 508.36 ± 2.4 Å²

Sequence: SPPLPEHQKIPCNSAEPK [_SPPLPEHQK(hydroxyisobutyryl)IPCNSAEPK_]
- collision cross section [12]: 544.57 Å²

Sequence: LLEQKTQESQK [_LLEQK(hydroxyisobutyryl)TQESQK_]
- collision cross section [13]: 401.39 ± 0.81 Å²

Sequence: DYSAPVNFISAGLKK [_DYSAPVNFISAGLK(Dimethyl (K))K_]
- collision cross section [14]: 457.54 ± 1.7 Å²
- collision cross section [15]: 517.49 ± 1.2 Å²

Sequence: SEASSEFAKK [_SEASSEFAK(Propionyl)K_]
- collision cross section [16]: 351.7 ± 3.7 Å²

Sequence: LTSLNVKYNNDK [_LTSLNVK(Butyryl)YNNDK_]
- collision cross section [10]: 414.27 ± 0.78 Å²

Sequence: SLGEPAAGEGSAKR [_SLGEPAAGEGSAK(Dimethyl (K))R_]
- collision cross section [14]: 415.22 ± 2 Å²
- collision cross section [15]: 473.88 ± 2.6 Å²

Sequence: FSAYIKNSNPALNDNLEK [_FSAYIK(GlyGly (K))NSNPALNDNLEK_]
- collision cross section [17]: 506.19 ± 1.5 Å²
- collision cross section [18]: 530.18 ± 11 Å²

Sequence: ANLEKAQAELVGTADEATR [_ANLEK(Methyl (K))AQAELVGTADEATR_]
- collision cross section [5]: 471.05 Å²
- collision cross section [6]: 523.1 ± 0.87 Å²

Sequence: AAINQKLIETGER [_AAINQK(Methyl (K))LIETGER_]
- collision cross section [5]: 414.21 ± 2.1 Å²
- collision cross section [6]: 471.88 ± 4.4 Å²

Sequence: PSVGSQSNQAGQGKR [_PSVGSQSNQAGQGK(Propionyl)R_]
- collision cross section [16]: 412.6 ± 0.64 Å²
- collision cross section [19]: 473.2 ± 1.4 Å²

Sequence: IGNSYFKEEK [_IGNSYFK(Succinyl)EEK_]
- collision cross section [8]: 382.2 ± 0.76 Å²

Sequence: VTPHPSPRGSPLPTPK [_VTPHPSPR(Citrullination (R))GSPLPTPK_]
- collision cross section [20]: 409.96 ± 0.55 Å²
- collision cross section (charge state: 3, modification: Citrullination (R)): 504.78 ± 11 Å²

Sequence: LDEKENLSAK [_LDEK(Succinyl)ENLSAK_]
- collision cross section [8]: 369.34 ± 0.74 Å²

Sequence: LGNDFHTNKR [_LGNDFHTNK(Propionyl)R_]
- collision cross section [16]: 374.29 Å²
- collision cross section [19]: 447.46 ± 0.59 Å²

Sequence: GAPGGRGAQLSVPSPAR [_GAPGGR(Methyl (R))GAQLSVPSPAR_]
- collision cross section [3]: 494.35 ± 0.66 Å²

Sequence: TTGFYSGFSEVAEKR [_TTGFYSGFSEVAEK(GlyGly (K))R_]
- collision cross section [17]: 463.26 ± 1.6 Å²
- collision cross section [18]: 525.41 ± 1.1 Å²

Sequence: GFLQPPPLRQPR [_GFLQPPPLR(Methyl (R))QPR_]
- collision cross section (charge state: 2, modification: Methyl (R)): 399.75 Å²
- collision cross section [3]: 450.22 ± 3.5 Å²

Sequence: GYGVIFANGNR [_GY(Phospho (Y))GVIFANGNR_]
- collision cross section [21]: 364.42 ± 0.064 Å²

Sequence: GSLEKGSPEDK [_GSLEK(hydroxyisobutyryl)GSPEDK_]
- collision cross section [13]: 376.24 ± 0.91 Å²

Sequence: DAEAAEATAEGALKAEK [_DAEAAEATAEGALK(Succinyl)AEK_]
- collision cross section [8]: 437.62 ± 0.51 Å²
- collision cross section [9]: 541.32 ± 2 Å²

Sequence: PSVGSQSNQAGQGKR [_PSVGSQSNQAGQGK(GlyGly (K))R_]
- collision cross section [17]: 441.17 ± 1.6 Å²
- collision cross section [18]: 461.66 ± 1.1 Å²

Sequence: VDVEVPDVSLEGPEGKLK [_VDVEVPDVSLEGPEGK(hydroxyisobutyryl)LK_]
- collision cross section [13]: 470.57 ± 1.1 Å²
- collision cross section [12]: 549.45 ± 27 Å²

Sequence: ITGKNQVTATK [_ITGK(Methyl (K))NQVTATK_]
- collision cross section [5]: 372.71 ± 1.1 Å²
- collision cross section [6]: 447.83 ± 5.1 Å²

Sequence: SISQSISGQK [_S(HexNAc (ST))ISQSISGQK_]
- collision cross section [7]: 366.39 ± 0.12 Å²

Sequence: IQTKAGEATVK [_IQTK(Malonyl)AGEATVK_]
- collision cross section [4]: 364.75 ± 0.62 Å²

Sequence: SLKLNTAEDAK [_SLK(Trimethyl (K))LNTAEDAK_]
- collision cross section (charge state: 2, modification: Trimethyl (K)): 378.59 ± 0.02 Å²
- collision cross section (charge state: 3, modification: Trimethyl (K)): 461.43 ± 2.4 Å²

Sequence: LAEQEAHYAVR [_LAEQEAHY(Nitro (Y))AVR_]
- collision cross section [22]: 388.92 ± 0.55 Å²
- collision cross section (charge state: 3, modification: Nitro (Y)): 469.49 ± 1.9 Å²

Sequence: PGSPGPPGSPGPR [_PGSPGPPGSP(Hydroxyproline)GPR_]
- collision cross section [23]: 352.39 ± 1.1 Å²

Sequence: IDLPAENSNSETIIITGKR [_IDLPAENSNSETIIITGK(Methyl (K))R_]
- collision cross section [6]: 568.48 ± 0.62 Å²

Sequence: ANAIGRGAK [_ANAIGR(Citrullination (R))GAK_]
- collision cross section [20]: 313.03 ± 0.86 Å²

Sequence: LTEKELAEAASK [_LTEK(GlyGly (K))ELAEAASK_]
- collision cross section [17]: 404.34 ± 0.36 Å²
- collision cross section [18]: 453.97 ± 1.1 Å²

Sequence: VYIASSSGSTAIKK [_VYIASSSGSTAIK(Gluratylation)K_]
- collision cross section [1]: 420.03 ± 1.5 Å²
- collision cross section [2]: 512.2 ± 1 Å²

Sequence: VDIDVPDVNIEGPDAKLK [_VDIDVPDVNIEGPDAK(GlyGly (K))LK_]
- collision cross section [17]: 469.92 ± 1.9 Å²
- collision cross section [18]: 504.15 ± 0.79 Å²

Sequence: DAIHFYNKSLAEHR [_DAIHFYNK(GlyGly (K))SLAEHR_]
- collision cross section [18]: 519.9 ± 0.35 Å²

Sequence: VGTASVLQPVKK [_VGTASVLQPVK(Acetyl (K))K_]
- collision cross section [24]: 379.84 ± 0.47 Å²

Sequence: IEDEQALGSQLQK [_IEDEQALGS(HexNAc (ST))QLQK_]
- collision cross section [7]: 424.7 ± 0.62 Å²
- collision cross section [25]: 499.3 ± 0.96 Å²

Sequence: INNFSADIKDSK [_INNFSADIK(Malonyl)DSK_]
- collision cross section [4]: 398.58 ± 0.027 Å²

Sequence: VTLEVGKVIQQGR [_VTLEVGK(Butyryl)VIQQGR_]
- collision cross section [10]: 412.79 ± 0.23 Å²
- collision cross section [11]: 483.04 ± 1.9 Å²

Sequence: SLFFGGKGAPLQR [_SLFFGGK(Dimethyl (K))GAPLQR_]
- collision cross section [14]: 408.95 ± 0.54 Å²
- collision cross section [15]: 451.66 ± 1.6 Å²

Sequence: AAQASDLEKIHLDEK [_AAQASDLEK(hydroxyisobutyryl)IHLDEK_]
- collision cross section [13]: 466.52 ± 0.88 Å²
- collision cross section [12]: 501.4 ± 2.8 Å²

Sequence: DLSTVEALQNLKNLK [_DLSTVEALQNLK(Formyl)NLK_]
- collision cross section [26]: 474.81 ± 0.7 Å²

Sequence: VDIDVPDVNIEGPDAKLK [_VDIDVPDVNIEGPDAK(Dimethyl (K))LK_]
- collision cross section [15]: 550.04 ± 1.1 Å²

Sequence: LLEEEDSKLK [_LLEEEDSK(Formyl)LK_]
- collision cross section [26]: 374.12 ± 0.55 Å²

Sequence: VGVEVPDVNIEGPEGKLK [_VGVEVPDVNIEGPEGK(Formyl)LK_]
- collision cross section [26]: 455.9 ± 1.7 Å²

Sequence: AQPQDSRGGSK [_AQPQDSR(Citrullination (R))GGSK_]
- collision cross section [20]: 347.45 ± 0.9 Å²

Sequence: DVNAAIAAIKTK [_DVNAAIAAIK(GlyGly (K))TK_]
- collision cross section [17]: 401.67 ± 0.99 Å²
- collision cross section [18]: 465.81 ± 1.1 Å²

Sequence: LEKDYQPGITFIVVQK [_LEKDYQP(Hydroxyproline)GITFIVVQK_]
- collision cross section [23]: 457.03 ± 0.32 Å²
- collision cross section (charge state: 3, modification: Hydroxyproline): 487.95 ± 1.3 Å²

Sequence: LEEVTGKLQVAR [_LEEVTGK(hydroxyisobutyryl)LQVAR_]
- collision cross section [13]: 399.92 ± 0.3 Å²

Sequence: ASNAAVKLAESK [_ASNAAVK(Formyl)LAESK_]
- collision cross section [26]: 365.07 ± 0.39 Å²

Sequence: IINEPTAAAIAYGLDKK [_IINEPTAAAIAYGLDK(Crotonyl)K_]
- collision cross section [27]: 463.28 ± 1.3 Å²
- collision cross section [28]: 561.41 ± 1.2 Å²

Sequence: VDATADYICK [_VDATADY(Phospho (Y))ICK_]
- collision cross section [21]: 366.93 ± 0.064 Å²

Sequence: LTSLNVKYNNDK [_LTSLNVK(Malonyl)YNNDK_]
- collision cross section [4]: 402.04 ± 0.61 Å²

Sequence: VQGGALEDSQLVAGVAFKK [_VQGGALEDSQLVAGVAFK(Acetyl (K))K_]
- collision cross section [24]: 468.5 Å²
- collision cross section (charge state: 3, modification: Acetyl (K)): 554.41 Å²

Sequence: RFSPPSSSLQPGK [_RFS(HexNAc (ST))PPSSSLQPGK_]
- collision cross section [7]: 414.91 ± 1 Å²
- collision cross section [25]: 448.47 ± 9.4 Å²

Sequence: GGPGSTLSFVGKR [_GGPGSTLSFVGK(GlyGly (K))R_]
- collision cross section [17]: 403.34 ± 0.36 Å²
- collision cross section [18]: 451.29 ± 1.3 Å²

Sequence: VTLEVGKVIQQGR [_VTLEVGK(Crotonyl)VIQQGR_]
- collision cross section [27]: 412.55 ± 0.81 Å²
- collision cross section [28]: 473.48 ± 1.6 Å²

Sequence: VIVGGSSEYK [_VIVGGSSEY(Nitro (Y))K_]
- collision cross section [22]: 344.24 ± 0.72 Å²

Sequence: TELLPGDRDNLAIQTR [_TELLPGDRDNLAIQT(HexNAc (ST))R_]
- collision cross section [25]: 528.81 ± 0.18 Å²

Sequence: GSLGAQKLANTCFNEIEK [_GSLGAQK(Gluratylation)LANTCFNEIEK_]
- collision cross section [1]: 469.86 Å²
